Laboratory results from patent US20130011375A1 (published 2013).

T1: HCV NS3 1073 (genotype 5) peptide on HLA-A*02:01 (human)
T1 peptide: CINGVMWTV

T2: HCV NS5 peptide on HLA-A*02:01 (human)
T2 peptide: VLTDFKTWL

T3: HCV NS3 1073 (genotype 2) peptide on HLA-A*02:01 (human)
T3 peptide: TISGVLWTV

T4: HCV NS3 (genotype 1b) peptide on HLA-A*02:01 (human)
T4 peptide: CVNGVCWTV

T5: HCV NS3 1073 (genotype 3) peptide on HLA-A*02:01 (human)
T5 peptide: TIGGVMWTV

T6: HCV NS3 peptide on HLA-A*02:01 (human)
T6 peptide: KLVALGINAV

T7: HCV NS3 1073 (genotype 4) peptide on HLA-A*02:01 (human)
T7 peptide: AVNGVMWTV

T8: HCV NS3 1073-1081, alanine analogue 1073-Ala (position 1) peptide on HLA-A*02:01 (human)
T8 peptide: AINGVCWTV

T9: HCMV pp65 (pp65 495) peptide on HLA-A*02:01 (human)
T9 peptide: NLVPMVATV

T10: Flu neuraminidase (Flu-NA231) peptide on HLA-A*02:01 (human)
T10 peptide: CVNGSCFTV

T11: HCV NS3 1073 (genotype 6) peptide on HLA-A*02:01 (human)
T11 peptide: AINGVMWTV

T12: HCV NS5 (NS5 2221) peptide on HLA-A*02:01 (human)
T12 peptide: SPDADLIEANL

T13: HCV NS3 (genotype 1a) peptide on HLA-A*02:01 (human)
T13 peptide: CINGVCWTV

T14: HCV NS3 1073-1081, alanine analogue 1078-Ala (position 6) peptide on HLA-A*02:01 (human)
T14 peptide: CINGVAWTV

T15: HCV NS3 1073-1081, alanine analogue 1081-Ala (position 9) peptide on HLA-A*02:01 (human)
T15 peptide: CINGVCWTA

T16: HCV NS3 1073-1081, alanine analogue 1080-Ala (position 8) peptide on HLA-A*02:01 (human)
T16 peptide: CINGVCWAV

T17: HCV NS3 1073-1081, alanine analogue 1074-Ala (position 2) peptide on HLA-A*02:01 (human)
T17 peptide: CANGVCWTV

T18: HCV NS3 (genotype 1a) peptide on HLA-A*02:01 (human/mouse chimera)
T18 peptide: CINGVCWTV


Tests used:
[1] = molecular target: T1, HCV NS3 1073 (genotype 5) peptide on …; assay: cytokine release
[2] = molecular target: T2, HCV NS5 peptide on HLA-A*02:01; assay: cytokine release
[3] = molecular target: T3, HCV NS3 1073 (genotype 2) peptide on …; assay: cytokine release
[4] = molecular target: T4, HCV NS3 (genotype 1b) peptide on …; assay: cytokine release
[5] = molecular target: T5, HCV NS3 1073 (genotype 3) peptide on …; assay: cytokine release
[6] = molecular target: T6, HCV NS3 peptide on HLA-A*02:01; assay: cytokine release
[7] = molecular target: T7, HCV NS3 1073 (genotype 4) peptide on …; assay: cytokine release
[8] = molecular target: T8, HCV NS3 1073-1081, alanine analogue …; assay: cytokine release
[9] = molecular target: T9, HCMV pp65 (pp65 495) peptide on …; assay: cytokine release
[10] = molecular target: T10, Flu neuraminidase (Flu-NA231) peptide …; assay: cytokine release
[11] = molecular target: T11, HCV NS3 1073 (genotype 6) peptide on …; assay: cytokine release
[12] = molecular target: T12, HCV NS5 (NS5 2221) peptide on …; assay: cytokine release
[13] = molecular target: T13, HCV NS3 (genotype 1a) peptide on …; assay: T cell clone or line
[14] = molecular target: T14, HCV NS3 1073-1081, alanine analogue …; assay: cytokine release
[15] = molecular target: T15, HCV NS3 1073-1081, alanine analogue …; assay: cytokine release
[16] = molecular target: T16, HCV NS3 1073-1081, alanine analogue …; assay: cytokine release
[17] = molecular target: T17, HCV NS3 1073-1081, alanine analogue …; assay: T cell clone or line
[18] = molecular target: T17, HCV NS3 1073-1081, alanine analogue …; assay: cytokine release
[19] = molecular target: T18, HCV NS3 (genotype 1a) peptide on …; assay: cytokine release
[20] = molecular target: T13, HCV NS3 (genotype 1a) peptide on …; assay: multimer staining

Row | Binder | binding result [1] | binding result [2] | binding result [3] | binding result [4] | binding result [5] | binding result [6] | binding result [7] | binding result [8] | binding result [9] | binding result [10] | binding result [11] | binding result [12] | binding result [14] | binding result [15] | binding result [16] | peptide concentration at which reactive [13] | further results
1 | I8A4 (TCR, V domains shown) Valpha: LAKTTQPPSMEAYEGQEVNVSCSHTNIATSEYIYWYRQVPHQGPQFIIQGYKDYVVNEVASLFISADRKLSTLSLPWVSLRDAAVYYCIVTDMETGGYKVVFGSGTRLLVSP Vbeta: EAAVTQSPRNKVAVTGGKVTLSCNQTNNHNNMYWYRQDTGHGLRLIHYSYGAGSTEKGDIPDGYKASRPSQENFSLILELATPSQTSVYFCASASTGASSYEQYFGPGTRLTVL | no recognition | no recognition | no recognition | recognises | no recognition | no recognition | no recognition | recognises | no recognition | no recognition | no recognition | no recognition | – | – | – | – | EC50 of peptide [13]: ≤ 0.4 µg/mL
2 | I4G7 alpha chain with I4G7 beta chain1 (TCR, V domains shown) Valpha: AQSVTQPDARVTVSEGASLQLRCKYSYFGTPYRIEFSGREFALLFWYVQYPRQGLQLLLKYYPGDPVVQGVNGFEAEFSKSNSSFHLRKASVHWSDWAVYFCAVSRDTNTGKLTFGDGTVLTVKP Vbeta: EAAVTQSPRNKVAVTGGKVTLSCNQTNNHNNMGELNLAAANSPLYWYRQDTGHGLRLIHYSYVADSTEKGDIPDGYKASRPSQENFSLILELASLSQTAVYFCASSGGLGGHTLYFGAGTRLSVL | no recognition | no recognition | no recognition | recognises | no recognition | no recognition | no recognition | recognises | no recognition | no recognition | no recognition | no recognition | recognises | recognises | recognises | < 100 ng/mL | EC50 of peptide [17]: 0.08 µg/mL
3 | I4G7 alpha chain with I4G7 beta chain2 (TCR, V domains shown) Valpha: AQSVTQPDARVTVSEGASLQLRCKYSYFGTPYLFWYVQYPRQGLQLLLKYYPGDPVVQGVNGFEAEFSKSNSSFHLRKASVHWSDWAVYFCAVSRDTNTGKLTFGDGTVLTVKP Vbeta: EAAVTQSPRNKVTVTGGNVTLSCRQTNSHNYMYWYRQDTGHGLRLIHYSYGAGNLRIGDVPDGYKATRTTQEDFFLLLELASPSQTSLYFCASSDYRDSGNTLYFGEGSRLIVV | no recognition | no recognition | no recognition | recognises | no recognition | no recognition | no recognition | recognises | no recognition | no recognition | no recognition | no recognition | recognises | recognises | recognises | < 100 ng/mL | EC50 of peptide [17]: 0.08 µg/mL
4 | I4F8 (TCR, V domains shown) Valpha: AQSVTQPDARVTVSEGASLQLRCKYSYFGTPYLFWYVQYPRQGLQLLLKYYPGDPVVQGVNGFEAEFSKSNSSFHLRKASVHWSDWAVYFCAVSNMGYKLTFGTGTSLLVDP Vbeta: DPKIIQKPKYLVAVTGSEKILICEQYLGHNAMYWYRQSAKKPLEFMFSYSYQKLMDNQTASSRFQPQSSKKNHLDLQITALKPDDSATYFCASSQEMGGALEQYFGPGTRLTVL | no recognition | no recognition | no recognition | recognises | no recognition | no recognition | no recognition | recognises | no recognition | no recognition | no recognition | no recognition | recognises | recognises | recognises | < 100 ng/mL | binding result [18]: recognises
5 | I8H4 (TCR, V domains shown) Valpha: AQKVTQTQTSISVVEKTTVTMDCVYETRDSSYFLFWYKQTASGEIVFLIRQDSYKKENATVGHYSLNFQKPKSSIGLIITATQIEDSAVYFCAMREITGNTGKLIFGLGTTLQVQP Vbeta: EAAVTQSPRNKVTVTGGNVTLSCRQTNSHNYMYWYRQDTGHGLRLIHYSYGAGNLRIGDVPDGYKATRTTQEDFFLLLELASPSQTSLYFCASSDALGGEDAEQFFGPGTRLTVL | no recognition | no recognition | no recognition | recognises | no recognition | no recognition | no recognition | recognises | no recognition | no recognition | no recognition | no recognition | recognises | recognises | recognises | – | binding result [19]: recognises; binding result [18]: recognises; binding result [20]: recognises
6 | TCR-19 (TCR, V domains shown) Valpha: GEKVEQHQSTLSVREGDSAVINCTYTDTASSYFPWYKQEAGKSLHFVIDIRSNVDRKQSQRLTVLLDKKAKRFSLHITATQPEDSAIYFCAASLITGNTGKLIFGLGTTLQVQP Vbeta: GGIITQTPKFLIGQEGQKLTLKCQQNFNHDTMYWYRQDSGKGLRLIYYSITENDLQKGDLSEGYDASREKKSSFSLTVTSAQKNEMAVFLCASSLTANTEVFFGKGTRLTVV | – | recognises | – | – | – | – | – | – | – | – | – | – | – | – | – | – | –
7 | TCR-69 (TCR, V domains shown) Valpha: LAKTTQPPSMEAYEGQEVNVSCSHTNIATSEYIYWYRQVPHQGPQFIIQGYKDYVVNEVASLFISADRKLSTLSLPWVSLRDAAVYYCIVTDLGITGNTGKLIFGLGTTLQVQP Vbeta: EAAVTQSPRNKVAVTGGKVTLSCNQTNNHNNMYWYRQDTGHGLRLIHYSYGAGSTEKGDIPDGYKASRPSQENFSLILELATPSQTSVYFCASGDEGYNSPLYFAAGTRLTVT | – | recognises | – | – | – | – | – | – | – | – | – | – | – | – | – | – | –
